From article PMC3568036

How the values were obtained:
[1] = biological target: Flag-tagged EspM2 (EHEC O157:H7 Sakai)
[2] = biological target: Flag-tagged EspM2 (EHEC O157:H7 Sakai); remark: listed apart in the source

GST-EspO1-2 W77A (natural protein) showed a percent of HeLa cells with stress fibers when transfected with EspM2 and EspO1-2 W77A expression vectors (38% with the EspM2 vector only) (% of transfected cells) [1] of 20.

With GST-EspO1-2 W77H (natural protein) the percent of HeLa cells with stress fibers when transfected with EspM2 and EspO1-2 W77H expression vectors (38% with the EspM2 vector only) (% of transfected cells) [1] was 20.

In the case of “glutathione-S-transferase (GST)-tagged EspO1-2 (natural protein)”, the percent of HeLa cells with stress fibers when transfected with both EspM2 and EspO1-2 expression vectors (38% with the EspM2 vector only), 72 h post-transfection (% of transfected cells) [2] is reported as 10.
